{"source": "paper PMC10425521", "about": "“Crosstalk between glucocorticoid and mineralocorticoid receptors boosts glucocorticoid-induced killing of multiple myeloma cells” (Cellular and Molecular Life Sciences: CMLS, 2023)", "key": {"[1]": {"biological_target": "T1, LgBiT-MR (mineralocorticoid receptor with LgBiT at the N-terminus) (UniProt P08235 1-984)", "T1 construct": "mineralocorticoid receptor (MR, NR3C2); NanoBiT fusion; also called pLgBiT-MR; source: HEK293T, transfected (calcium phosphate), in intact cells; not shown: LgBiT, N-terminal, kept", "T1 sequence (looked up)": "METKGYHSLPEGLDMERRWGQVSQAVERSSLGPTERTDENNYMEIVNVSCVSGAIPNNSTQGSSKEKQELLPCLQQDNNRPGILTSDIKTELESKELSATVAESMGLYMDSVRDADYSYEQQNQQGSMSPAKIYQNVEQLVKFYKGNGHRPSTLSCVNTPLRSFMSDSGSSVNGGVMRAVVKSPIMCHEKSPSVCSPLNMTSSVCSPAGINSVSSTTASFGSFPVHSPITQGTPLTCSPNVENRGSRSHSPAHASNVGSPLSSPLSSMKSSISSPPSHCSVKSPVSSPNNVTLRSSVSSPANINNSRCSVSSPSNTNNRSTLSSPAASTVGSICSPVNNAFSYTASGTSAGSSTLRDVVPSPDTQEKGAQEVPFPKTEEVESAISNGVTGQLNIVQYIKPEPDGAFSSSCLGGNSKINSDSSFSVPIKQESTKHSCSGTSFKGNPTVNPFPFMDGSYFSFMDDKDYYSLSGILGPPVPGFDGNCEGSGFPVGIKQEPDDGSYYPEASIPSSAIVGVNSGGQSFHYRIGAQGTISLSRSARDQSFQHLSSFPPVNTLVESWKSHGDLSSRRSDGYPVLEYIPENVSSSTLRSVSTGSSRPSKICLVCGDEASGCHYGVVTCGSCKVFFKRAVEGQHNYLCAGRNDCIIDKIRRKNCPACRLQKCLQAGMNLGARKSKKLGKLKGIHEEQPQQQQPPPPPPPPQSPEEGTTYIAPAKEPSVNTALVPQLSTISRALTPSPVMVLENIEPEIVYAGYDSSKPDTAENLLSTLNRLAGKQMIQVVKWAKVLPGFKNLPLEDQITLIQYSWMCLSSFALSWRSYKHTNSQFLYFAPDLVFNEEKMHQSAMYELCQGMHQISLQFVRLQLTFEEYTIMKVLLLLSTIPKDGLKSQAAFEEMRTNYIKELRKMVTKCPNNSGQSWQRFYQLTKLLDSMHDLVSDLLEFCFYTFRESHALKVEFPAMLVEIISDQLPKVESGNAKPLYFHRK", "experiment": "split reporter (BiFC, NanoBiT); NanoBiT in intact HEK293T cells, Dex (10^-6 M) added after baseline, luminescence over 60 min, normalised to baseline and given as fold versus solvent", "details": "partners not purified"}, "[2]": {"biological_target": "T1, LgBiT-MR (mineralocorticoid receptor …)", "experiment": "split reporter (BiFC, NanoBiT); NanoBiT in intact HEK293T cells, Dex (10^-6 M) together with Spi (10^-5 M) added after baseline, luminescence over 60 min, normalised to baseline and given as fold versus solvent", "details": "partners not purified"}}}
{"binder": "GR-SmBiT (glucocorticoid receptor with SmBiT at the C-terminus) (receptor, UniProt P04150 1-777, looked up, glucocorticoid receptor (GR, NR3C1); NanoBiT fusion; also called pGR-SmBiT; source: HEK293T, transfected (calcium phosphate), in intact cells; not shown: SmBiT, C-terminal, kept) MDSKESLTPGREENPSSVLAQERGDVMDFYKTLRGGATVKVSASSPSLAVASQSDSKQRRLLVDFPKGSVSNAQQPDLSKAVSLSMGLYMGETETKVMGNDLGFPQQGQISLSSGETDLKLLEESIANLNRSTSVPENPKSSASTAVSAAPTEKEFPKTHSDVSSEQQHLKGQTGTNGGNVKLYTTDQSTFDILQDLEFSSGSPGKETNESPWRSDLLIDENCLLSPLAGEDDSFLLEGNSNEDCKPLILPDTKPKIKDNGDLVLSSPSNVTLPQVKTEKEDFIELCTPGVIKQEKLGTVYCQASFPGANIIGNKMSAISVHGVSTSGGQMYHYDMNTASLSQQQDQKPIFNVIPPIPVGSENWNRCQGSGDDNLTSLGTLNFPGRTVFSNGYSSPSMRPDVSSPPSSSSTATTGPPPKLCLVCSDEASGCHYGVLTCGSCKVFFKRAVEGQHNYLCAGRNDCIIDKIRRKNCPACRYRKCLQAGMNLEARKTKKKIKGIQQATTGVSQETSENPGNKTIVPATLPQLTPTLVSLLEVIEPEVLYAGYDSSVPDSTWRIMTTLNMLGGRQVIAAVKWAKAIPGFRNLHLDDQMTLLQYSWMFLMAFALGWRSYRQSSANLLCFAPDLIINEQRMTLPCMYDQCKHMLYVSSELHRLQVSYEEYLCMKTLLLLSSVPKDGLKSQELFDEIRMTYIKELGKAIVKREGNSSQNWQRFYQLTKLLDSMHEVVENLLNYCFQTFLDKTMSIEFPEMLAEIITNQIPKYSNGNIKKLLFHQK", "values": [{"measurement": "fold induction of NanoBiT luminescence versus solvent (with Dex)", "setting": "[1]", "value": "~8", "unit": "fold"}, {"measurement": "fold induction of NanoBiT luminescence versus solvent (with Dex and Spi)", "setting": "[2]", "value": "~6", "unit": "fold"}]}
